Earlier results as cited in publication PMC6478124.

Target: HDM2 (Homo sapiens) (UniProt Q00987)
Sequence (Q00987 whole entry): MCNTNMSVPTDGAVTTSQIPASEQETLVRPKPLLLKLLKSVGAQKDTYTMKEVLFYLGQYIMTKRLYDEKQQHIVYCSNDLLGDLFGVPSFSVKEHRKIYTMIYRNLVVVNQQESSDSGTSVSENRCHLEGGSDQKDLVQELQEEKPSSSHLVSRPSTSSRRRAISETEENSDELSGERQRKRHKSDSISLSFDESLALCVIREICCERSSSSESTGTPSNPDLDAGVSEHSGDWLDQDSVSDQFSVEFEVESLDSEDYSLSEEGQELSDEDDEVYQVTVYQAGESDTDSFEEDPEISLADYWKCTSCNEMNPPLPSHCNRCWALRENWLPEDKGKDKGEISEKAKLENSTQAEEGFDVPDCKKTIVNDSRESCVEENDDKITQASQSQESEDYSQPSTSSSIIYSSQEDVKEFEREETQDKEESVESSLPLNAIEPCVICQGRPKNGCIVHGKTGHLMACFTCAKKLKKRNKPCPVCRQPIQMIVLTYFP

## stapled p53 transactivation domain peptide transactivation domain α-helix (from UniProt P04637)
  Kd: 6.76 nM
